According to the supplement of paper PMC9112550, “Optimization of the antimicrobial peptide Bac7 by deep mutational scanning” (BMC Biology, 2022):

Test system: Escherichia coli TOP10
Experiment: shrunken log2 fold change of peptide-encoding DNA abundance (4.5 h post-induction vs induction); higher = less antimicrobial activity (less host growth inhibition)
Details: time post-induction: 4.5 h; library: site-saturation at positions 5, 18, 19, 20
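Note: peptides expressed intracellularly from a pBAD plasmid library in pooled LB shake-flask culture, induced with 0.3% L-arabinose, DNA abundance read by NGS, three biological replicates, DESeq2 with apeglm shrinkage.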

Row | Sequence | shrunken log2 fold change
1 | RRIRGRPPRLPRPRPRPLDFPRP | 0.78
2 | RRIRRRPPRLPRPRPRPWRGPRP | 0.215
3 | RRIRNRPPRLPRPRPRPRLTPRP | 0.252
4 | RRIRERPPRLPRPRPRPMSFPRP | -0.314
5 | RRIRARPPRLPRPRPRPHGWPRP | 0.184
6 | RRIRNRPPRLPRPRPRPSHNPRP | -0.643
7 | RRIRVRPPRLPRPRPRPHYCPRP | -0.186
8 | RRIRMRPPRLPRPRPRPVFLPRP | 0.0386
9 | RRIRARPPRLPRPRPRPKQHPRP | 0.312
10 | RRIRERPPRLPRPRPRPNWNPRP | -0.236
11 | RRIRGRPPRLPRPRPRPRFCPRP | 0.569
12 | RRIRIRPPRLPRPRPRPHNSPRP | -0.132
13 | RRIRTRPPRLPRPRPRPFWTPRP | -0.258
14 | RRIRIRPPRLPRPRPRPPYDPRP | -0.814
15 | RRIRPRPPRLPRPRPRPASLPRP | 0.187
16 | RRIRFRPPRLPRPRPRPGMDPRP | -0.25
17 | RRIRNRPPRLPRPRPRPDVVPRP | -0.0975
18 | RRIRLRPPRLPRPRPRPCLPPRP | -0.0626
19 | RRIRQRPPRLPRPRPRPNEVPRP | -0.00511
20 | RRIRERPPRLPRPRPRPLVHPRP | -0.158
21 | RRIRFRPPRLPRPRPRPAFKPRP | -0.347
22 | RRIRKRPPRLPRPRPRPNKHPRP | -0.122
23 | RRIRSRPPRLPRPRPRPHEGPRP | 0.0242
24 | RRIRRRPPRLPRPRPRPQQTPRP | -0.0146
25 | RRIRDRPPRLPRPRPRPALNPRP | -0.0576

Row | Sequence | shrunken log2 fold change
26 | RRIRWRPPRLPRPRPRPVFKPRP | 0.0598
27 | RRIRMRPPRLPRPRPRPWDAPRP | 0.228
28 | RRIRVRPPRLPRPRPRPAFPPRP | 0.246
29 | RRIRQRPPRLPRPRPRPKNIPRP | -0.652
30 | RRIRQRPPRLPRPRPRPNTRPRP | -0.0754
31 | RRIRVRPPRLPRPRPRPVAEPRP | 0.104
32 | RRIRDRPPRLPRPRPRPFFSPRP | 0.115
33 | RRIRMRPPRLPRPRPRPLVEPRP | 2.17
34 | RRIRLRPPRLPRPRPRPSVMPRP | -0.199
35 | RRIRLRPPRLPRPRPRPWPTPRP | 0.0538
36 | RRIRNRPPRLPRPRPRPTNNPRP | -0.545
37 | RRIRYRPPRLPRPRPRPRGTPRP | 0.173
38 | RRIRCRPPRLPRPRPRPTTIPRP | -0.492
39 | RRIRSRPPRLPRPRPRPECWPRP | 1.03
40 | RRIRLRPPRLPRPRPRPEMPPRP | 0.365
41 | RRIRYRPPRLPRPRPRPNTWPRP | -0.204
42 | RRIRFRPPRLPRPRPRPIREPRP | -0.0362
43 | RRIRIRPPRLPRPRPRPTKFPRP | -0.164
44 | RRIRIRPPRLPRPRPRPYHFPRP | -0.248
45 | RRIRSRPPRLPRPRPRPINTPRP | -0.648
46 | RRIRGRPPRLPRPRPRPGQRPRP | 0.345
47 | RRIRTRPPRLPRPRPRPDKQPRP | 0.0419
48 | RRIRLRPPRLPRPRPRPAMPPRP | 0.234
49 | RRIRIRPPRLPRPRPRPIHHPRP | -0.65
50 | RRIRPRPPRLPRPRPRPDLYPRP | -0.153

Row | Sequence | shrunken log2 fold change
51 | RRIRPRPPRLPRPRPRPSFDPRP | -0.248
52 | RRIRERPPRLPRPRPRPDYAPRP | -0.0187
53 | RRIRHRPPRLPRPRPRPIHSPRP | 0.0202
54 | RRIRPRPPRLPRPRPRPYACPRP | -0.921
55 | RRIRYRPPRLPRPRPRPRRWPRP | 0.309
56 | RRIRVRPPRLPRPRPRPWFPPRP | -0.641
57 | RRIRFRPPRLPRPRPRPGNQPRP | -0.00933
58 | RRIRARPPRLPRPRPRPVQWPRP | 0.546
59 | RRIRYRPPRLPRPRPRPGVEPRP | 0.0346
60 | RRIRLRPPRLPRPRPRPRMWPRP | 0.458
61 | RRIRTRPPRLPRPRPRPCEKPRP | -0.0336
62 | RRIRERPPRLPRPRPRPVKDPRP | -0.189
63 | RRIRDRPPRLPRPRPRPTTEPRP | 0.578
64 | RRIRLRPPRLPRPRPRPQTDPRP | -0.139
65 | RRIRPRPPRLPRPRPRPQLDPRP | 0.314
66 | RRIRVRPPRLPRPRPRPCIQPRP | -0.00992
67 | RRIRDRPPRLPRPRPRPPIAPRP | -0.0649
68 | RRIRSRPPRLPRPRPRPHLRPRP | 0.092
69 | RRIRPRPPRLPRPRPRPQQDPRP | -0.301
70 | RRIRCRPPRLPRPRPRPELSPRP | 0.52
71 | RRIRERPPRLPRPRPRPFREPRP | -0.235
72 | RRIRERPPRLPRPRPRPSYWPRP | -0.266
73 | RRIRLRPPRLPRPRPRPQFKPRP | -0.501
74 | RRIRWRPPRLPRPRPRPVDQPRP | 0.168
75 | RRIRWRPPRLPRPRPRPIGNPRP | 0.137

Row | Sequence | shrunken log2 fold change
76 | RRIRWRPPRLPRPRPRPPSIPRP | 0.357
77 | RRIRWRPPRLPRPRPRPSEFPRP | 0.144
78 | RRIRHRPPRLPRPRPRPAISPRP | -0.121
79 | RRIRVRPPRLPRPRPRPQFCPRP | -0.17
80 | RRIRARPPRLPRPRPRPTMQPRP | 0.418
81 | RRIRIRPPRLPRPRPRPAVTPRP | -0.322
82 | RRIRFRPPRLPRPRPRPEEKPRP | -0.0254
83 | RRIRNRPPRLPRPRPRPWIMPRP | -1.05
84 | RRIRCRPPRLPRPRPRPPTKPRP | 0.108
85 | RRIRIRPPRLPRPRPRPWWEPRP | -0.109
86 | RRIRYRPPRLPRPRPRPQDKPRP | -0.341
87 | RRIRIRPPRLPRPRPRPKGQPRP | 0.143
88 | RRIRFRPPRLPRPRPRPLNPPRP | -0.1
89 | RRIRLRPPRLPRPRPRPVQAPRP | -0.0131
90 | RRIRCRPPRLPRPRPRPTKAPRP | 0.209
91 | RRIRLRPPRLPRPRPRPGPDPRP | 0.953
92 | RRIRIRPPRLPRPRPRPVWEPRP | 0.108
93 | RRIRWRPPRLPRPRPRPMCHPRP | -0.115
94 | RRIRRRPPRLPRPRPRPDYTPRP | -0.0883
95 | RRIRTRPPRLPRPRPRPGDKPRP | 0.137
96 | RRIRFRPPRLPRPRPRPIKSPRP | -0.271
97 | RRIRVRPPRLPRPRPRPPPVPRP | 0.767
98 | RRIRCRPPRLPRPRPRPNFEPRP | -0.0286
99 | RRIRRRPPRLPRPRPRPNDEPRP | -0.0407
100 | RRIRTRPPRLPRPRPRPDPPPRP | 0.517

Row | Sequence | shrunken log2 fold change
101 | RRIRIRPPRLPRPRPRPEIGPRP | -0.0838
102 | RRIRIRPPRLPRPRPRPPGYPRP | 0.0184
103 | RRIRWRPPRLPRPRPRPALIPRP | 0.0212
104 | RRIRKRPPRLPRPRPRPSESPRP | 0.0559
105 | RRIRNRPPRLPRPRPRPCDDPRP | 0.0873
106 | RRIRERPPRLPRPRPRPIYDPRP | -0.137
107 | RRIRSRPPRLPRPRPRPEGGPRP | 0.325
108 | RRIRGRPPRLPRPRPRPDDLPRP | 0.0487
109 | RRIRNRPPRLPRPRPRPKDGPRP | -0.00992
110 | RRIRDRPPRLPRPRPRPTIPPRP | 0.0494
111 | RRIRERPPRLPRPRPRPCVRPRP | -0.447
112 | RRIRERPPRLPRPRPRPIRVPRP | -0.679
113 | RRIRSRPPRLPRPRPRPGALPRP | 0.324
114 | RRIRGRPPRLPRPRPRPFRQPRP | 0.124
115 | RRIRRRPPRLPRPRPRPKSYPRP | 0.171
116 | RRIRCRPPRLPRPRPRPNQNPRP | -0.437
117 | RRIRRRPPRLPRPRPRPLKAPRP | 0.785
118 | RRIRWRPPRLPRPRPRPLCPPRP | 0.0748
119 | RRIRVRPPRLPRPRPRPTSSPRP | -0.0575
120 | RRIRMRPPRLPRPRPRPSYEPRP | -0.293
121 | RRIRYRPPRLPRPRPRPEGGPRP | 0.0214
122 | RRIRERPPRLPRPRPRPDKKPRP | 0.0282
123 | RRIRNRPPRLPRPRPRPVDEPRP | 0.0158
124 | RRIRMRPPRLPRPRPRPVVCPRP | 0.125
125 | RRIRVRPPRLPRPRPRPQQKPRP | -0.027
